For orientation: stoichiometry N means a count of units in the complex or per binding partner.

In test [1] the target is CelA203, lichenase (β-1,3-1,4-glucanase) from Bacillus subtilis B110 (Bacillus subtilis B110). The experiment in a line: SEC; FPLC, Enrich SEC 650 10 × 300 column, 20 mM Tris-HCl pH 7.0, 0.5 ml/min; calibrated with HMW native protein markers (66-669); polymer and monomer peaks. In general terms: In gel filtration, larger molecules generally elute earlier.
For test [2] the target is unchanged. The experiment in a line: SDS-PAGE of unboiled sample, mass from a mobility (Rf) standard curve; purified CelA203, unboiled, 10% SDS-PAGE; tetramer band and weak monomer band; tetramer to monomers.

As for “CelA203, lichenase (β-1,3-1,4-glucanase) from Bacillus subtilis B110 (enzyme)”, the stoichiometry N in test [1] came out at 4; in test [2] it was 4.07.

Source of the values: publication PMC9628817.
